Target: T1, GST-LOV2GIV (L) (Avena sativa | , FMN chromophore. GST omitted. The exact sequence and junction are in Supplementary file 1, so limits are by convention: AsLOV2 404-546 and the UniProt GBA motif. The paper's GIV numbering is the displ)
T1 chain: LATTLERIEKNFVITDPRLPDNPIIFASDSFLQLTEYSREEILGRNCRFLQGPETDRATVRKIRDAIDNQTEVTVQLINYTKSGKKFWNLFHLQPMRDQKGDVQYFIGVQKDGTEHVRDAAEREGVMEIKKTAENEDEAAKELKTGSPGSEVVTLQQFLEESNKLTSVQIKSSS
Assay: pull-down; ~20 µg purified GST-fused construct on glutathione-agarose beads, 3 µg (~300 nM) purified His-tagged Gα; 4 hr at 4°C in 50 mM Tris-HCl pH 7.4, 100 mM NaCl, 0.4% NP-40, 10 mM MgCl2, 5 mM EDTA, 1 mM DTT, 30 µM GDP; immunoblot for His
Conditions: both partners purified

B1: His-Gαi3 (rat) (natural protein, UniProt P08753 1-354, looked up)
chain: MGCTLSAEDKAAVERSKMIDRNLREDGEKAAKEVKLLLLGAGESGKSTIVKQMKIIHEDGYSEDECKQYKVVVYSNTIQSIIAIIRAMGRLKIDFGEAARADDARQLFVLAGSAEEGVMTSELAGVIKRLWRDGGVQACFSRSREYQLNDSASYYLNDLDRISQTNYIPTQQDVLRTRVKTTGIVETHFTFKELYFKMFDVGGQRSERKKWIHCFEGVTAIIFCVALSDYDLVLAEDEEMNRMHESMKLFDSICNNKWFTDTSIILFLNKKDLFEEKIKRSPLTICYPEYTGSNTYEEAAAYIQCQFEDLNRRKDTKEVYTHFTCATDTKNVQFVFDAVTDVIIKNNLKECGLY
notes: rat Gαi3, G-protein alpha subunit i3; kept with GDP in the buffers; also called pET28b-Gαi3; source: E. coli BL21(DE3), purified (HisPur cobalt resin, desalting)
fold binding over the dark conformation, LOV2GIV (D): ~3 fold

From paper PMC7515630, “Optogenetic activation of heterotrimeric G-proteins by LOV2GIVe, a rationally engineered modular protein” (eLife, 2020)
